Consider ten molecules from US20230159662A1 (Kyowa Kirin, published 2023).

Sequences and labels used below:
B1: human IgG1 anti-human CCR4 antibody (KM2160), S298A/E333A/K334A (AAA) (antibody)
heavy: EVQLVESGGDLMKPGGSLKISCAASGFIFSNYGMSWVRQTPDMRLEWVATISSASTYSYYPDSVKGRFTISRDNAENSLYLQMNSLRSEDTGIYYCGRHSDGNFAFGYWGRGTLVTVSAASTKGPSVFPLAPSSKSTSGGTAALGCLVKDYFPEPVTVSWNSGALTSGVHTFPAVLQSSGLYSLSSVVTVPSSSLGTQTYICNVNHKPSNTKVDKKVEPKSCDKTHTCPPCPAPELLGGPSVFLFPPKPKDTLMISRTPEVTCVVVDVSHEDPEVKFNWYVDGVEVHNAKTKPREEQYNATYRVVSVLTVLHQDWLNGKEYKCKVSNKALPAPIAATISKAKGQPREPQVYTLPPSRDELTKNQVSLTCLVKGFYPSDIAVEWESNGQPENNYKTTPPVLDSDGSFFLYSKLTVDKSRWQQGNVFSCSVMHEALHNHYTQKSLSLSPGK
light: DVLMTQTPLSLPVSLGDQASISCRSSRNIVHINGDTYLEWYLQRPGQSPKLLIYKVSNRFSGVPDRFSGSGSGTDFTLKISRVEAEDLGVYYCFQGSLLPWTFGGGTRLEIRRTVAAPSVFIFPPSDEQLKSGTASVVCLLNNFYPREAKVQWKVDNALQSGNSQESVTEQDSKDSTYSLSSTLTLSKADYEKHKVYACEVTHQGLSSPVTKSFNRGEC
B2: human IgG1 anti-human CCR4 antibody (KM2160), S298A/E333A/K334A (AAA)/H268E (antibody)
heavy: EVQLVESGGDLMKPGGSLKISCAASGFIFSNYGMSWVRQTPDMRLEWVATISSASTYSYYPDSVKGRFTISRDNAENSLYLQMNSLRSEDTGIYYCGRHSDGNFAFGYWGRGTLVTVSAASTKGPSVFPLAPSSKSTSGGTAALGCLVKDYFPEPVTVSWNSGALTSGVHTFPAVLQSSGLYSLSSVVTVPSSSLGTQTYICNVNHKPSNTKVDKKVEPKSCDKTHTCPPCPAPELLGGPSVFLFPPKPKDTLMISRTPEVTCVVVDVSEEDPEVKFNWYVDGVEVHNAKTKPREEQYNATYRVVSVLTVLHQDWLNGKEYKCKVSNKALPAPIAATISKAKGQPREPQVYTLPPSRDELTKNQVSLTCLVKGFYPSDIAVEWESNGQPENNYKTTPPVLDSDGSFFLYSKLTVDKSRWQQGNVFSCSVMHEALHNHYTQKSLSLSPGK
light: DVLMTQTPLSLPVSLGDQASISCRSSRNIVHINGDTYLEWYLQRPGQSPKLLIYKVSNRFSGVPDRFSGSGSGTDFTLKISRVEAEDLGVYYCFQGSLLPWTFGGGTRLEIRRTVAAPSVFIFPPSDEQLKSGTASVVCLLNNFYPREAKVQWKVDNALQSGNSQESVTEQDSKDSTYSLSSTLTLSKADYEKHKVYACEVTHQGLSSPVTKSFNRGEC
B3: human IgG1 anti-human CCR4 antibody (KM2160), S298A/E333A/K334A (AAA)/P247L (antibody)
heavy: EVQLVESGGDLMKPGGSLKISCAASGFIFSNYGMSWVRQTPDMRLEWVATISSASTYSYYPDSVKGRFTISRDNAENSLYLQMNSLRSEDTGIYYCGRHSDGNFAFGYWGRGTLVTVSAASTKGPSVFPLAPSSKSTSGGTAALGCLVKDYFPEPVTVSWNSGALTSGVHTFPAVLQSSGLYSLSSVVTVPSSSLGTQTYICNVNHKPSNTKVDKKVEPKSCDKTHTCPPCPAPELLGGPSVFLFPPKLKDTLMISRTPEVTCVVVDVSHEDPEVKFNWYVDGVEVHNAKTKPREEQYNATYRVVSVLTVLHQDWLNGKEYKCKVSNKALPAPIAATISKAKGQPREPQVYTLPPSRDELTKNQVSLTCLVKGFYPSDIAVEWESNGQPENNYKTTPPVLDSDGSFFLYSKLTVDKSRWQQGNVFSCSVMHEALHNHYTQKSLSLSPGK
light: DVLMTQTPLSLPVSLGDQASISCRSSRNIVHINGDTYLEWYLQRPGQSPKLLIYKVSNRFSGVPDRFSGSGSGTDFTLKISRVEAEDLGVYYCFQGSLLPWTFGGGTRLEIRRTVAAPSVFIFPPSDEQLKSGTASVVCLLNNFYPREAKVQWKVDNALQSGNSQESVTEQDSKDSTYSLSSTLTLSKADYEKHKVYACEVTHQGLSSPVTKSFNRGEC
B4: human IgG1 anti-human CCR4 antibody (KM2160), S298A/E333A/R292L/K334E (antibody)
heavy: EVQLVESGGDLMKPGGSLKISCAASGFIFSNYGMSWVRQTPDMRLEWVATISSASTYSYYPDSVKGRFTISRDNAENSLYLQMNSLRSEDTGIYYCGRHSDGNFAFGYWGRGTLVTVSAASTKGPSVFPLAPSSKSTSGGTAALGCLVKDYFPEPVTVSWNSGALTSGVHTFPAVLQSSGLYSLSSVVTVPSSSLGTQTYICNVNHKPSNTKVDKKVEPKSCDKTHTCPPCPAPELLGGPSVFLFPPKPKDTLMISRTPEVTCVVVDVSHEDPEVKFNWYVDGVEVHNAKTKPLEEQYNATYRVVSVLTVLHQDWLNGKEYKCKVSNKALPAPIAETISKAKGQPREPQVYTLPPSRDELTKNQVSLTCLVKGFYPSDIAVEWESNGQPENNYKTTPPVLDSDGSFFLYSKLTVDKSRWQQGNVFSCSVMHEALHNHYTQKSLSLSPGK
light: DVLMTQTPLSLPVSLGDQASISCRSSRNIVHINGDTYLEWYLQRPGQSPKLLIYKVSNRFSGVPDRFSGSGSGTDFTLKISRVEAEDLGVYYCFQGSLLPWTFGGGTRLEIRRTVAAPSVFIFPPSDEQLKSGTASVVCLLNNFYPREAKVQWKVDNALQSGNSQESVTEQDSKDSTYSLSSTLTLSKADYEKHKVYACEVTHQGLSSPVTKSFNRGEC
B5: human IgG1 anti-human CCR4 antibody (KM2160), S239D/I332E (DE) (antibody)
heavy: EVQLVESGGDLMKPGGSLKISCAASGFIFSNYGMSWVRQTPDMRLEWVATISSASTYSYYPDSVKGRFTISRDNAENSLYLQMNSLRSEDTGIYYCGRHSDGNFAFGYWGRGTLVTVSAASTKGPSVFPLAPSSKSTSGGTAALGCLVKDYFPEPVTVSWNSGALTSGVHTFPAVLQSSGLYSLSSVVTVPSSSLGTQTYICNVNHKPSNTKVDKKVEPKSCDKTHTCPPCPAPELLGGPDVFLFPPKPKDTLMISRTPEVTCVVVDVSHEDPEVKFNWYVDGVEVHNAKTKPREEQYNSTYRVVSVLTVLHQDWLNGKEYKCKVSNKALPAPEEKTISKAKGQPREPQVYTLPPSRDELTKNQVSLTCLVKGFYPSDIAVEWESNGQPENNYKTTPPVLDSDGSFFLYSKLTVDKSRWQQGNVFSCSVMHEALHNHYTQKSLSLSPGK
light: DVLMTQTPLSLPVSLGDQASISCRSSRNIVHINGDTYLEWYLQRPGQSPKLLIYKVSNRFSGVPDRFSGSGSGTDFTLKISRVEAEDLGVYYCFQGSLLPWTFGGGTRLEIRRTVAAPSVFIFPPSDEQLKSGTASVVCLLNNFYPREAKVQWKVDNALQSGNSQESVTEQDSKDSTYSLSSTLTLSKADYEKHKVYACEVTHQGLSSPVTKSFNRGEC
B6: human IgG1 anti-human CCR4 antibody (KM2160), S239D/A330F (antibody)
heavy: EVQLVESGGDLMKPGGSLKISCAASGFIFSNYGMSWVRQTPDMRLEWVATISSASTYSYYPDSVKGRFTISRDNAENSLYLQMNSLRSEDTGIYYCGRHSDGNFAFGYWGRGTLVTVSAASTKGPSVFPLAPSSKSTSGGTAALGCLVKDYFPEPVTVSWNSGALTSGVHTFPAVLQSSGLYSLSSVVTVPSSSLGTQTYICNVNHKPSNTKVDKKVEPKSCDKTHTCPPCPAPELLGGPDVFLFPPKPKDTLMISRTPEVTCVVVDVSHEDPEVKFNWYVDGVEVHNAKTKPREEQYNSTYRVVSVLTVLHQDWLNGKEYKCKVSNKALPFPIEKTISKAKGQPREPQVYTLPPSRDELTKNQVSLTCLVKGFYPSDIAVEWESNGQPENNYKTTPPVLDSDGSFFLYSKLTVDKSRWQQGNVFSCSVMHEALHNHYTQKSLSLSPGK
light: DVLMTQTPLSLPVSLGDQASISCRSSRNIVHINGDTYLEWYLQRPGQSPKLLIYKVSNRFSGVPDRFSGSGSGTDFTLKISRVEAEDLGVYYCFQGSLLPWTFGGGTRLEIRRTVAAPSVFIFPPSDEQLKSGTASVVCLLNNFYPREAKVQWKVDNALQSGNSQESVTEQDSKDSTYSLSSTLTLSKADYEKHKVYACEVTHQGLSSPVTKSFNRGEC
B7: human IgG1 anti-human CCR4 antibody (KM2160), S298A/E333A/K334A (AAA)/P247L/N421K (antibody)
heavy: EVQLVESGGDLMKPGGSLKISCAASGFIFSNYGMSWVRQTPDMRLEWVATISSASTYSYYPDSVKGRFTISRDNAENSLYLQMNSLRSEDTGIYYCGRHSDGNFAFGYWGRGTLVTVSAASTKGPSVFPLAPSSKSTSGGTAALGCLVKDYFPEPVTVSWNSGALTSGVHTFPAVLQSSGLYSLSSVVTVPSSSLGTQTYICNVNHKPSNTKVDKKVEPKSCDKTHTCPPCPAPELLGGPSVFLFPPKLKDTLMISRTPEVTCVVVDVSHEDPEVKFNWYVDGVEVHNAKTKPREEQYNATYRVVSVLTVLHQDWLNGKEYKCKVSNKALPAPIAATISKAKGQPREPQVYTLPPSRDELTKNQVSLTCLVKGFYPSDIAVEWESNGQPENNYKTTPPVLDSDGSFFLYSKLTVDKSRWQQGKVFSCSVMHEALHNHYTQKSLSLSPGK
light: DVLMTQTPLSLPVSLGDQASISCRSSRNIVHINGDTYLEWYLQRPGQSPKLLIYKVSNRFSGVPDRFSGSGSGTDFTLKISRVEAEDLGVYYCFQGSLLPWTFGGGTRLEIRRTVAAPSVFIFPPSDEQLKSGTASVVCLLNNFYPREAKVQWKVDNALQSGNSQESVTEQDSKDSTYSLSSTLTLSKADYEKHKVYACEVTHQGLSSPVTKSFNRGEC
B8: human IgG1 anti-human CCR4 antibody (KM2160), S298A/E333A/K334A (AAA)/R293P (antibody)
heavy: EVQLVESGGDLMKPGGSLKISCAASGFIFSNYGMSWVRQTPDMRLEWVATISSASTYSYYPDSVKGRFTISRDNAENSLYLQMNSLRSEDTGIYYCGRHSDGNFAFGYWGRGTLVTVSAASTKGPSVFPLAPSSKSTSGGTAALGCLVKDYFPEPVTVSWNSGALTSGVHTFPAVLQSSGLYSLSSVVTVPSSSLGTQTYICNVNHKPSNTKVDKKVEPKSCDKTHTCPPCPAPELLGGPSVFLFPPKPKDTLMISRTPEVTCVVVDVSHEDPEVKFNWYVDGVEVHNAKTKPPEEQYNATYRVVSVLTVLHQDWLNGKEYKCKVSNKALPAPIAATISKAKGQPREPQVYTLPPSRDELTKNQVSLTCLVKGFYPSDIAVEWESNGQPENNYKTTPPVLDSDGSFFLYSKLTVDKSRWQQGNVFSCSVMHEALHNHYTQKSLSLSPGK
light: DVLMTQTPLSLPVSLGDQASISCRSSRNIVHINGDTYLEWYLQRPGQSPKLLIYKVSNRFSGVPDRFSGSGSGTDFTLKISRVEAEDLGVYYCFQGSLLPWTFGGGTRLEIRRTVAAPSVFIFPPSDEQLKSGTASVVCLLNNFYPREAKVQWKVDNALQSGNSQESVTEQDSKDSTYSLSSTLTLSKADYEKHKVYACEVTHQGLSSPVTKSFNRGEC
B9: human IgG1 anti-human CCR4 antibody (KM2160), S298A/E333A/K334A (AAA)/K326T (antibody)
heavy: EVQLVESGGDLMKPGGSLKISCAASGFIFSNYGMSWVRQTPDMRLEWVATISSASTYSYYPDSVKGRFTISRDNAENSLYLQMNSLRSEDTGIYYCGRHSDGNFAFGYWGRGTLVTVSAASTKGPSVFPLAPSSKSTSGGTAALGCLVKDYFPEPVTVSWNSGALTSGVHTFPAVLQSSGLYSLSSVVTVPSSSLGTQTYICNVNHKPSNTKVDKKVEPKSCDKTHTCPPCPAPELLGGPSVFLFPPKPKDTLMISRTPEVTCVVVDVSHEDPEVKFNWYVDGVEVHNAKTKPREEQYNATYRVVSVLTVLHQDWLNGKEYKCKVSNTALPAPIAATISKAKGQPREPQVYTLPPSRDELTKNQVSLTCLVKGFYPSDIAVEWESNGQPENNYKTTPPVLDSDGSFFLYSKLTVDKSRWQQGNVFSCSVMHEALHNHYTQKSLSLSPGK
light: DVLMTQTPLSLPVSLGDQASISCRSSRNIVHINGDTYLEWYLQRPGQSPKLLIYKVSNRFSGVPDRFSGSGSGTDFTLKISRVEAEDLGVYYCFQGSLLPWTFGGGTRLEIRRTVAAPSVFIFPPSDEQLKSGTASVVCLLNNFYPREAKVQWKVDNALQSGNSQESVTEQDSKDSTYSLSSTLTLSKADYEKHKVYACEVTHQGLSSPVTKSFNRGEC
B10: human IgG1 anti-human CCR4 antibody (KM2160), S239D/K326T (antibody)
heavy: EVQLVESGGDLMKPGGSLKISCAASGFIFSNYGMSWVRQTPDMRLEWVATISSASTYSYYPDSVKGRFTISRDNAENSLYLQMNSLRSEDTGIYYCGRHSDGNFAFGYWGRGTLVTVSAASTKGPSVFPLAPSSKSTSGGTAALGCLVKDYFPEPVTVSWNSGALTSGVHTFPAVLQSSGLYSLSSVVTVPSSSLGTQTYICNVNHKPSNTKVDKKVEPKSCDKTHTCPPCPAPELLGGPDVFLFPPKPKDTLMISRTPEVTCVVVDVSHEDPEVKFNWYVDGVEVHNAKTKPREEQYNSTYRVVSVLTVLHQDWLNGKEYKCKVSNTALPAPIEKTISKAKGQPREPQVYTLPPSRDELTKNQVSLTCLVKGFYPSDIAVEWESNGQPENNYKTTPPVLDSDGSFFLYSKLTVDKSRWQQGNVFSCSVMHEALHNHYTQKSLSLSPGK
light: DVLMTQTPLSLPVSLGDQASISCRSSRNIVHINGDTYLEWYLQRPGQSPKLLIYKVSNRFSGVPDRFSGSGSGTDFTLKISRVEAEDLGVYYCFQGSLLPWTFGGGTRLEIRRTVAAPSVFIFPPSDEQLKSGTASVVCLLNNFYPREAKVQWKVDNALQSGNSQESVTEQDSKDSTYSLSSTLTLSKADYEKHKVYACEVTHQGLSSPVTKSFNRGEC

Sequence of human CD16a (Val type) stably expressed on NK-92 cells (NK-92/CD16 transfectant) (P08637 17-254 F176V): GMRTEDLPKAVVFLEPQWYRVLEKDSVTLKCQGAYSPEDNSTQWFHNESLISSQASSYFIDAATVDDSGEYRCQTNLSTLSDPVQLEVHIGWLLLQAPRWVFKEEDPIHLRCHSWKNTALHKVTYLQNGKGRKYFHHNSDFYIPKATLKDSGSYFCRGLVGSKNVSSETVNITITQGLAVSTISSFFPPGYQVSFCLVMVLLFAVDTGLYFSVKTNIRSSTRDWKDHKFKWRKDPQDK

This test has as its target human CD16a (Val type) stably expressed on NK-92 cells (NK-92/CD16 transfectant) (human, UniProt P08637 17-254). Put plainly: cell-based or functional assay.
With B1, the “relative ADCC activity (AAA = 100)” value is 100 relative, AAA at 0.1 µg/mL = 100. As for B2, the figure is 164 relative, AAA at 0.1 µg/mL = 100; as for B3, 160 relative, AAA at 0.1 µg/mL = 100; as for B4, 163 relative, AAA at 0.1 µg/mL = 100. As for B5, the figure is 201 relative, AAA at 0.1 µg/mL = 100; as for B6, 161 relative, AAA at 0.1 µg/mL = 100; as for B7, 175 relative, AAA at 0.1 µg/mL = 100. For B8 the value was 125 relative, AAA at 0.1 µg/mL = 100; for B9, 136 relative, AAA at 0.1 µg/mL = 100; for B10, 179 relative, AAA at 0.1 µg/mL = 100.
